Measurements: the supplement of paper PMC11316812
± gives the standard deviation of the averaged measurements.

Tests used:
hTERT-HMEC = assay: percentage of EdU-negative (G0-arrested) nuclei per well, 72 h; higher = more G0 arrest; settings: reference: sequence is the full UniProt precursor, the tested protein was the secreted form or ectodomain
MCF7 = assay: as above; settings: reference: sequence is the full UniProt precursor, the tested protein was the secreted form or ectodomain
[1] = protein concentration 0.0225 µM
[2] = protein concentration 0.02588 µM
[3] = protein concentration 0.2588 µM
[4] = protein concentration 0.01025 µM
[5] = protein concentration 0.1025 µM
[6] = protein concentration 0.0211429 µM
[7] = protein concentration 0.211429 µM
[8] = protein concentration 0.0115 µM
[9] = protein concentration 0.03125 µM
[10] = protein concentration 0.3125 µM
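Further: secreted proteins added to cultured cells, EdU pulse at the end, nuclei found by Hoechst imaging, EdU status from nuclear versus surrounding ring intensity ratio, PBS as neutral control.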

“MAKSFPVFSLLSFILIHLVLSSVSGPRHWWPPRGIIKVKCPYEKVNLSWYNGTVNPCPGLYQPICGTNFITYDNPCILCVESLKSHGRIRFYHDGKC [Q6IE38]” was tested, and the “percentage of EdU-negative” value (hTERT-HMEC; [1]) was 6.19 ± 0.33%, the “percentage of EdU-negative” value (hTERT-HMEC; protein concentration 0.225 µM) was 6.12 ± 0.94% and the “percentage of EdU-negative” value (MCF7; [1]) was 24 ± 0.13%. For the same sequence, the “percentage of EdU-negative” value (MCF7; protein concentration 0.225 µM) was 27 ± 1.2%.

With “MEPPGDWGPPPWRSTPKTDVLRLVLYLTFLGAPCYAPALPSCKEDEYPVGSECCPKCSPGYRVKEACGELTGTVCEPCPPGTYIAHLNGLSKCLQCQMCDPAMGLRASRNCSRTENAVCGCSPGHFCIVQDGDHCAACRAYATSSPGQRVQKGGTESQDTLCQNCPPGTFSPNGTLEECQHQTKCSWLVTKAGAGTSSSHWVWWFLSGSLVIVIVCSTVGLIICVKRRKPRGDVVKVIVSVQRKRQEAEGEATVIEALQAPPDVTTVAVEETIPSFTGRSPNH [F6Q0M4]” the “percentage of EdU-negative” value (hTERT-HMEC; [2]) was 5.28 ± 1.9%, the “percentage of EdU-negative” value (hTERT-HMEC; [3]) was 6.34 ± 0.056% and the “percentage of EdU-negative” value (MCF7; [2]) was 25.05 ± 0.09%. The “percentage of EdU-negative” value (MCF7; [3]) was 27.5 ± 1.3%.

For “MGPPSASPHRECIPWQGLLLTASLLNFWNPPTTAKLTIESMPLSVAEGKEVLLLVHNLPQHLFGYSWYKGERVDGNSLIVGYVIGTQQATPGAAYSGRETIYTNASLLIQNVTQNDIGFYTLQVIKSDLVNEEATGQFHVYQENAPGLPVGAVAGIVTGVLVGVALVAALVCFLLLAKTGRTSIQRDLKEQQPQALAPGRGPSHSSAFSMSPLSTAQAPLPNPRTAASIYEELLKHDTNIYCRMDHKAEVAS”, the “percentage of EdU-negative” value (hTERT-HMEC; [1]) was 5.43 ± 0.36%, the “percentage of EdU-negative” value (hTERT-HMEC; protein concentration 0.225 µM) was 5.03 ± 0.028% and the “percentage of EdU-negative” value (MCF7; [1]) was 25 ± 3.7%. The “percentage of EdU-negative” value (MCF7; protein concentration 0.225 µM) was 25.4 ± 1.4%.

For “MMLRLLSSLLLVAVASGYGPPSSHSSSRVVHGEDAVPYSWPWQVSLQYEKSGSFYHTCGGSLIAPDWVVTAGHCISRDLTYQVVLGEYNLAVKEGPEQVIPINSEELFVHPLWNRSCVACGNDIALIKLSRSAQLGDAVQLASLPPAGDILPNKTPCYITGWGRLYTNGPLPDKLQQARLPVVDYKHCSRWNWWGSTVKKTMVCAGGYIRSGCNGDSGGPLNCPTEDGGWQVHGVTSFVSAFGCNFIWKPTVFTRVSAFIDWIEETIASH”, the “percentage of EdU-negative” value (hTERT-HMEC; [4]) was 5.71 ± 1.5%, the “percentage of EdU-negative” value (hTERT-HMEC; [5]) was 5.66 ± 0.78% and the “percentage of EdU-negative” value (MCF7; [4]) was 25.2 ± 3%. For the same sequence, the “percentage of EdU-negative” value (MCF7; [5]) was 24.7 ± 1.6%.

“MMDIYVCLKRPSWMVDNKRMRTASNFQWLLSTFILLYLMNQVNSQKKGAPHDLKCVTNNLQVWNCSWKAPSGTGRGTDYEVCIENRSRSCYQLEKTSIKIPALSHGDYEITINSLHDFGSSTSKFTLNEQNVSLIPDTPEILNLSADFSTSTLYLKWNDRGSVFPHRSNVIWEIKVLRKESMELVKLVTHNTTLNGKDTLHHWSWASDMPLECAIHFVEIRCYIDNLHFSGLEEWSDWSPVKNISWIPDSQTKVFPQDKVILVGSDITFCCVSQEKVLSALIGHTNCPLIHLDGENVAIKIRNISVSASSGTNVVFTTEDNIFGTVIFAGYPPDTPQQLNCETHDLKEIICSWNPGRVTALVGPRATSYTLVESFSGKYVRLKRAEAPTNESYQLLFQMLPNQEIYNFTLNAHNPLGRSQSTILVNITEKVYPHTPTSFKVKDINSTAVKLSWHLPGNFAKINFLCEIEIKKSNSVQEQRNVTIKGVENSSYLVALDKLNPYTLYTFRIRCSTETFWKWSKWSNKKQHLTTEASPSKGPDTWREWSSDGKNLIIYWKPLPINEANGKILSYNVSCSSDEETQSLSEIPDPQHKAEIRLDKNDYIISVVAKNSVGSSPPSKIASMEIPNDDLKIEQVVGMGKGILLTWHYDPNMTCDYVIKWCNSSRSEPCLMDWRKVPSNSTETVIESDEFRPGIRYNFFLYGCRNQGYQLLRSMIGYIEELAPIVAPNFTVEDTSADSILVKWEDIPVEELRGFLRGYLFYFGKGERDTSKMRVLESGRSDIKVKNITDISQKTLRIADLQGKTSYHLVLRAYTDGGVGPEKSMYVVTKENSVGLIIAILIPVAVAVIVGVVTSILCYRKREWIKETFYPDIPNPENCKALQFQKSVCEGSSALKTLEMNPCTPNNVEVLETRSAFPKIEDTEIISPVAERPEDRSDAEPENHVVVSYCPPIIEEEIPNPAADEAGGTAQVIYIDVQSMYQPQAKPEEEQENDPVGGAGYKPQMHLPINSTVEDIAAEEDLDKTAGYRPQANVNTWNLVSPDSPRSIDSNSEIVSFGSPCSINSRQFLIPPKDEDSPKSNGGGWSFTNFFQNKPND” was tested, and the “percentage of EdU-negative” value (hTERT-HMEC; [6]) was 4.99 ± 0.47%, the “percentage of EdU-negative” value (hTERT-HMEC; [7]) was 7.62 ± 0.7% and the “percentage of EdU-negative” value (MCF7; [6]) was 24.2 ± 2%. For the same sequence, the “percentage of EdU-negative” value (MCF7; [7]) was 26.8 ± 0.8%.

In the case of “MLLLFLLFEGLCCPGENTAAPQALQSYHLAAEEQLSFRMLQTSSFANHSWAHSEGSGWLGDLQTHGWDTVLGTIRFLKPWSHGNFSKQELKNLQSLFQLYFHSFIQIVQASAGQFQLEYPFEIQILAGCRMNAPQIFLNMAYQGSDFLSFQGISWEPSPGAGIRAQNICKVLNRYLDIKEILQSLLGHTCPRFLAGLMEAGESELKRKVKPEAWLSCGPSPGPGRLQLVCHVSGFYPKPVWVMWMRGEQEQRGTQRGDVLPNADETWYLRATLDVAAGEAAGLSCRVKHSSLGGHDLIIHWGGYSIFLILICLTVIVTLVILVVVDSRLKKQSSNKNILSPHTPSPVFLMGANTQDTKNSRHQFCLAQVSWIKNRVLKKWKTRLNQLW”, the “percentage of EdU-negative” value (hTERT-HMEC; [8]) is reported as 4.889 ± 0.0055%, the “percentage of EdU-negative” value (hTERT-HMEC; protein concentration 0.115 µM) is reported as 8.22 ± 0.88% and the “percentage of EdU-negative” value (MCF7; [8]) is reported as 28.7 ± 2.1%. The “percentage of EdU-negative” value (MCF7; protein concentration 0.115 µM) was 26 ± 1.3%.

“MDRAARCSGASSLPLLLALALGLVILHCVVADGNSTRSPETNGLLCGDPEENCAATTTQSKRKGHFSRCPKQYKHYCIKGRCRFVVAEQTPSCVCDEGYIGARCERVDLFYLRGDRGQILVICLIAVMVVFIILVIGVCTCCHPLRKRRKRKKKEEEMETLGKDITPINEDIEETNIA” was tested, and the “percentage of EdU-negative” value (hTERT-HMEC; [9]) was 5.5 ± 0.31%, the “percentage of EdU-negative” value (hTERT-HMEC; [10]) was 5.88 ± 0.75% and the “percentage of EdU-negative” value (MCF7; [9]) was 24.5 ± 1.2%. For the same sequence, the “percentage of EdU-negative” value (MCF7; [10]) was 23.3 ± 0.42%.
